In patent publication US20130323234A1 (Pfizer, published 2013):

Columns and labels:
[1] = target: IGF1R on the human colon carcinoma cell line Colo205 (human, UniProt P08069 31-1367); test: cell-based or functional assay
IGF1R = IGF1R (UniProt P08069 31-932, limits assumed); test: cell-based or functional assay

B1: 2.12.1.fx antibody (antibody, human IgG2, kappa, V domains shown)
VH: QVQLVESGGGLVKPGGSLRLSCAASGFTFSDYYMSWIRQAPGKGLEWVSYISSSGSTRDYADSVKGRFTISRDNAKNSLYLQMNSLRAEDTAVYYCVRDGVETTFYYYYYGMDVWGQGTTVTVSS
VL: DIQMTQSPSSLSASVGDRVTITCRASQDIRRDLGWYQQKPGKAPKRLIYAASRLQSGVPSRFSGSGSGTEFTLTISSLQPEDFATYYCLQHNNYPRTFGQGTKLVIKR
[1]
  % IGF1R downregulated: 48%
IGF1R
  % IGF1R downregulated: 36%
